Data from paper PMC7215194 (Heliyon, 2020).

Molecular target: dansyl-calmodulin (recombinant rat CaM, dansylated) (rat, UniProt P0DP29 1-149, dansylated with dansyl chloride)
Experiment: other fluorescence titration

binding result: binds
Binder: RKLWKRFFCFLRRS
